Test results as given in the Human Domainome abundance scans (Beltran et al. 2025).
± gives the uncertainty stated by the source.

Assay: abundance fitness (aPCA) (normalised: wild type 0, dead -1); higher = more abundant; growth selection in yeast, the domain comes from the species named
Conditions: Homo sapiens

In order of falling abundance fitness:
1. BAG family molecular chaperone regulator 3 G15D, O95817  1.2 ± 0.092
2. BAG family molecular chaperone regulator 3 G15H, O95817  1.18 ± 0.16
3. BAG family molecular chaperone regulator 3 G15K, O95817  1.15 ± 0.12
4. BAG family molecular chaperone regulator 3 G15N, O95817  1.04 ± 0.089
5. BAG family molecular chaperone regulator 3 G17H, O95817  1.03 ± 0.1
6. BAG family molecular chaperone regulator 3 G15E, O95817  1 ± 0.094
7. BAG family molecular chaperone regulator 3 G17E, O95817  0.915 ± 0.077
8. BAG family molecular chaperone regulator 3 G15V, O95817  0.89 ± 0.078
9. BAG family molecular chaperone regulator 3 G15Y, O95817  0.874 ± 0.075
10. BAG family molecular chaperone regulator 3 G15T, O95817  0.856 ± 0.082
11. BAG family molecular chaperone regulator 3 G15Q, O95817  0.828 ± 0.094
12. BAG family molecular chaperone regulator 3 G17D, O95817  0.825 ± 0.07
13. BAG family molecular chaperone regulator 3 G15S, O95817  0.814 ± 0.067
14. BAG family molecular chaperone regulator 3 G15I, O95817  0.795 ± 0.18
15. BAG family molecular chaperone regulator 3 G15L, O95817  0.766 ± 0.074
16. BAG family molecular chaperone regulator 3 E57N, O95817  0.759 ± 0.22
17. BAG family molecular chaperone regulator 3 G15R, O95817  0.737 ± 0.059
18. BAG family molecular chaperone regulator 3 G17C, O95817  0.731 ± 0.11
19. BAG family molecular chaperone regulator 3 G15C, O95817  0.649 ± 0.079
20. BAG family molecular chaperone regulator 3 G15F, O95817  0.641 ± 0.083
21. BAG family molecular chaperone regulator 3 G15P, O95817  0.603 ± 0.15
22. BAG family molecular chaperone regulator 3 F38Q, O95817  0.571 ± 0.22
23. BAG family molecular chaperone regulator 3 G17A, O95817  0.55 ± 0.09
24. BAG family molecular chaperone regulator 3 F38L, O95817  0.326 ± 0.072
25. BAG family molecular chaperone regulator 3 D51T, O95817  0.29 ± 0.25
26. BAG family molecular chaperone regulator 3 F38M, O95817  0.197 ± 0.14
27. BAG family molecular chaperone regulator 3 G15M, O95817  0.142 ± 0.17
28. BAG family molecular chaperone regulator 3 E57S, O95817  -0.001 ± 0.11
29. BAG family molecular chaperone regulator 3 F38H, O95817  -0.014 ± 0.15
30. BAG family molecular chaperone regulator 3 E57P, O95817  -0.027 ± 0.16
31. BAG family molecular chaperone regulator 3 E57F, O95817  -0.052 ± 0.28
32. BAG family molecular chaperone regulator 3 F38V, O95817  -0.092 ± 0.14
33. BAG family molecular chaperone regulator 3 E57K, O95817  -0.11 ± 0.24
34. BAG family molecular chaperone regulator 3 E57T, O95817  -0.118 ± 0.21
35. BAG family molecular chaperone regulator 3 E57R, O95817  -0.119 ± 0.081
36. BAG family molecular chaperone regulator 3 F38R, O95817  -0.149 ± 0.1
37. BAG family molecular chaperone regulator 3 F39E, O95817  -0.154 ± 0.085
38. BAG family molecular chaperone regulator 3 G17F, O95817  -0.177 ± 0.23
39. BAG family molecular chaperone regulator 3 F38A, O95817  -0.181 ± 0.15
40. BAG family molecular chaperone regulator 3 E57M, O95817  -0.186 ± 0.24
41. BAG family molecular chaperone regulator 3 E27Q, O95817  -0.222 ± 0.3
42. BAG family molecular chaperone regulator 3 E57G, O95817  -0.237 ± 0.12
43. BAG family molecular chaperone regulator 3 F38S, O95817  -0.243 ± 0.069
44. BAG family molecular chaperone regulator 3 F39Y, O95817  -0.244 ± 0.24
45. BAG family molecular chaperone regulator 3 F38K, O95817  -0.31 ± 0.088
46. BAG family molecular chaperone regulator 3 E57A, O95817  -0.317 ± 0.1
47. BAG family molecular chaperone regulator 3 E57H, O95817  -0.326 ± 0.38
48. BAG family molecular chaperone regulator 3 F38E, O95817  -0.356 ± 0.13
49. BAG family molecular chaperone regulator 3 E27K, O95817  -0.42 ± 0.23
50. BAG family molecular chaperone regulator 3 F39W, O95817  -0.42 ± 0.19
51. BAG family molecular chaperone regulator 3 E57W, O95817  -0.423 ± 0.29
52. BAG family molecular chaperone regulator 3 F39G, O95817  -0.436 ± 0.067
53. BAG family molecular chaperone regulator 3 E57Y, O95817  -0.44 ± 0.13
54. BAG family molecular chaperone regulator 3 F39N, O95817  -0.442 ± 0.29
55. BAG family molecular chaperone regulator 3 D51Y, O95817  -0.45 ± 0.4
56. BAG family molecular chaperone regulator 3 E57Q, O95817  -0.46 ± 0.33
57. BAG family molecular chaperone regulator 3 E57L, O95817  -0.468 ± 0.094
58. BAG family molecular chaperone regulator 3 E27D, O95817  -0.472 ± 0.35
59. BAG family molecular chaperone regulator 3 G15W, O95817  -0.481 ± 0.19
60. BAG family molecular chaperone regulator 3 F38G, O95817  -0.503 ± 0.14
61. BAG family molecular chaperone regulator 3 F39L, O95817  -0.528 ± 0.14
62. BAG family molecular chaperone regulator 3 E27G, O95817  -0.54 ± 0.14
63. BAG family molecular chaperone regulator 3 E27T, O95817  -0.555 ± 0.15
64. BAG family molecular chaperone regulator 3 E57C, O95817  -0.564 ± 0.15
65. BAG family molecular chaperone regulator 3 E57I, O95817  -0.566 ± 0.36
66. BAG family molecular chaperone regulator 3 F38D, O95817  -0.57 ± 0.14
67. BAG family molecular chaperone regulator 3 F39T, O95817  -0.587 ± 0.26
68. BAG family molecular chaperone regulator 3 E27S, O95817  -0.596 ± 0.14
69. BAG family molecular chaperone regulator 3 F39H, O95817  -0.615 ± 0.39
70. BAG family molecular chaperone regulator 3 E27A, O95817  -0.617 ± 0.18
71. BAG family molecular chaperone regulator 3 F39R, O95817  -0.618 ± 0.068
72. BAG family molecular chaperone regulator 3 F38T, O95817  -0.622 ± 0.29
73. BAG family molecular chaperone regulator 3 F39Q, O95817  -0.633 ± 0.5
74. BAG family molecular chaperone regulator 3 F39P, O95817  -0.639 ± 0.19
75. BAG family molecular chaperone regulator 3 F38W, O95817  -0.665 ± 0.25
76. BAG family molecular chaperone regulator 3 D51V, O95817  -0.666 ± 0.12
77. BAG family molecular chaperone regulator 3 F38I, O95817  -0.692 ± 0.34
78. BAG family molecular chaperone regulator 3 E27M, O95817  -0.714 ± 0.19
79. BAG family molecular chaperone regulator 3 E57V, O95817  -0.721 ± 0.21
80. BAG family molecular chaperone regulator 3 F38N, O95817  -0.724 ± 0.46
81. BAG family molecular chaperone regulator 3 F39S, O95817  -0.729 ± 0.19
82. BAG family molecular chaperone regulator 3 E27R, O95817  -0.742 ± 0.15
83. BAG family molecular chaperone regulator 3 F39V, O95817  -0.754 ± 0.11
84. BAG family molecular chaperone regulator 3 E27C, O95817  -0.789 ± 0.39
85. BAG family molecular chaperone regulator 3 E27P, O95817  -0.836 ± 0.39
86. BAG family molecular chaperone regulator 3 E27N, O95817  -0.889 ± 0.22
87. BAG family molecular chaperone regulator 3 F39A, O95817  -0.89 ± 0.18
88. BAG family molecular chaperone regulator 3 E27L, O95817  -0.912 ± 0.2
89. BAG family molecular chaperone regulator 3 E27V, O95817  -0.96 ± 0.25
90. BAG family molecular chaperone regulator 3 E27W, O95817  -0.988 ± 0.48
91. BAG family molecular chaperone regulator 3 D51W, O95817  -1.18 ± 0.23
